Test results from patent publication US20030166021A1 (WISTAR INSTITUTE OF ANATOMY AND BIOLOGY, published 2003).
Ends that are not written are not given here.

T1: protein kinase C (PKC) peptide FTRHPPVLTPPDQEVI test bait (rat, also: fused to LexA DNA binding domain (order, linker not given here))
T1 construct: Negative control bait in the two hybrid mating test; also called peptide derived from rat protein kinase Cβ2
T1 chain: FTRHPPVLTPPDQEVI

T2: cell cycle protein p107 (UniProt P28749 1-1068, limits assumed)
T2 sequence (looked up): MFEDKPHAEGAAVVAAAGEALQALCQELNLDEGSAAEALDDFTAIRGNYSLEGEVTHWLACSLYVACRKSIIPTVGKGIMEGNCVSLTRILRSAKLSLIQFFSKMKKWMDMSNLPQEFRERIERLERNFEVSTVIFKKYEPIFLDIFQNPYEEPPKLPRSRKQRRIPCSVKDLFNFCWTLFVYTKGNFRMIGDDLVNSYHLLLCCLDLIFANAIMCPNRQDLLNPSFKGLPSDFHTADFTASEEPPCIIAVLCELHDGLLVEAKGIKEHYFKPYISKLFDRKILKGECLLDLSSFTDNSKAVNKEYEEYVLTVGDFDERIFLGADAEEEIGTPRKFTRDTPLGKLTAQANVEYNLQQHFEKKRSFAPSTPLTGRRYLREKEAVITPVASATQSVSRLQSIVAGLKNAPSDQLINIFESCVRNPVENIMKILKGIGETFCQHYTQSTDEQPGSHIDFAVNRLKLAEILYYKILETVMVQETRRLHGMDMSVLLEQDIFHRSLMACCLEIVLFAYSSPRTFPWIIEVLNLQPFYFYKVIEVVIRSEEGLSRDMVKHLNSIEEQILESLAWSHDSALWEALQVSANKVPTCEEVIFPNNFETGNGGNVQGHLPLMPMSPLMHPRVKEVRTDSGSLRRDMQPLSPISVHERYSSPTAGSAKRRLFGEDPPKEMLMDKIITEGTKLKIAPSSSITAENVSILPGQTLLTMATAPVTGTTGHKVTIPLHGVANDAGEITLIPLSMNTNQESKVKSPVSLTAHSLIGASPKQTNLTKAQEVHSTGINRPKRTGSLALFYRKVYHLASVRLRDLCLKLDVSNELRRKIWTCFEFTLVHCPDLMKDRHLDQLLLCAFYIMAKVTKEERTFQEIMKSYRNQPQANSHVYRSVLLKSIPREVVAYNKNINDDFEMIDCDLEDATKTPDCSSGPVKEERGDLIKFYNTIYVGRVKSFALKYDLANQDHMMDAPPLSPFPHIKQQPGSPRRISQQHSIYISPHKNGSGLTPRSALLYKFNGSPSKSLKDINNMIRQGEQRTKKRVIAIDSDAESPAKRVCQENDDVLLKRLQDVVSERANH

B1: murine Bin1 135 amino acid polypeptide (clone #99 ORF) as VP16 fusion from the two hybrid cDNA library (other)
chain: EIRVNHEPEPASGASPGAAIPKSPSQPAEASEVVGGAQEPGETAASEATSSSLPAVVVETFSATVNGAVEGSAGTGRLDLPPGFMFKVQAQHDYTATDTDELQLKAGDVVLVIPFQNPEEQDEGWLMGVKESD
notes: Prey of the yeast two hybrid screen
B2: GST-ATG99 polypeptide (glutathione-S-transferase fusion of the 135 aa murine Bin1 polypeptide) (other)
chain: B1 chain
notes: Expressed in E. coli, purified on glutathione-Sepharose; not shown: glutathione-S-transferase of vector pGEX-2T (Pharmacia); 15 amino acid N-terminal extension with initiator methionine (3 amino acids from E47 and 12 amino acids from VP16); lett

Experiments:
[1] = biological target: T3, LexA-MB1 fusion protein (human c-Myc Myc box 1 peptide, amino acids 47-62) (human); experiment: yeast two hybrid, mating test with LexA baits
T3 construct: also called MB1 bait; lexA-MB1 peptide construct

[2] = biological target: T4, small GTP-binding protein RhoB test bait (UniProt P62745 1-196, limits assumed); experiment: yeast two hybrid mating test with negative control baits
T4 construct: Negative control bait in the two hybrid mating test
T4 sequence (P62745 whole entry): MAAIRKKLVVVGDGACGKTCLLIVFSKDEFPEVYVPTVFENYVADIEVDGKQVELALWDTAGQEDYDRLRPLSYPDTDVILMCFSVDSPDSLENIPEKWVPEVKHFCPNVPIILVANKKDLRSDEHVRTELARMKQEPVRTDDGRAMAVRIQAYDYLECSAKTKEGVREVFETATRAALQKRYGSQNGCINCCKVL

[3] = biological target: T1, protein kinase C (PKC) peptide …; experiment: as above
[4] = biological target: T5, c-Myc with both MB1 (49-101) and MB2 (120-140) deletions (human, UniProt P01106 1-48; P01106 102-119; P01106 141-439); experiment: GST pull-down of 35S-labelled IVT protein
T5 construct: range 1-48; also called CMV Hm subclone containing both deletions
T5 sequence (P01106 other isoform, or with tags, fused parts or gaps limits assumed): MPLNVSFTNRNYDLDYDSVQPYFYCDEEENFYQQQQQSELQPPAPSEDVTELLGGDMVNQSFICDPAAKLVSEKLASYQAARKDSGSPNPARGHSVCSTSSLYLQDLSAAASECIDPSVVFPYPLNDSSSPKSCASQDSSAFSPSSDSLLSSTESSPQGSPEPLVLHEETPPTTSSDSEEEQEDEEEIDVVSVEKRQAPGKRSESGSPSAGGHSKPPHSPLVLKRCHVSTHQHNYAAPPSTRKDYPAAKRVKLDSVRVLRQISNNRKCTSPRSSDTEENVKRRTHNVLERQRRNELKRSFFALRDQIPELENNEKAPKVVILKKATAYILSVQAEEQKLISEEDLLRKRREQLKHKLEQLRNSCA

[5] = biological target: T6, SV40 large T antigen (vector pTag) (SV40, UniProt P03070 1-708); experiment: GST pull-down of 35S-labelled IVT protein
T6 construct: 35S-labelled in vitro translated protein

USF (vector CMV-USF) = biological target: T7, USF (vector CMV-USF) (UniProt P22415 1-310, limits assumed); experiment: GST pull-down of 35S-labelled IVT protein
T7 construct: 35S-labelled in vitro translated protein
T7 sequence (P22415 whole entry): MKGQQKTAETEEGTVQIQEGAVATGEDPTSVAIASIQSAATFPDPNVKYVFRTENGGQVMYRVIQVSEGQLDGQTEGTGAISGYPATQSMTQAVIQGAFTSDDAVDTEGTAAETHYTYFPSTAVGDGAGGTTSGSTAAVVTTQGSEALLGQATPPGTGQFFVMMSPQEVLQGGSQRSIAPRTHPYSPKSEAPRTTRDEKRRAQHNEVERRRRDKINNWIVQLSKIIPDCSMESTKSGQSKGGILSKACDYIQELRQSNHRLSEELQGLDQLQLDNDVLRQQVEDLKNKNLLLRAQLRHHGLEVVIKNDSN

[6] = biological target: transcription factor YY 1 (UniProt P25490 1-414, limits assumed); experiment: GST pull-down
Chain of transcription factor YY 1 (P25490 whole entry): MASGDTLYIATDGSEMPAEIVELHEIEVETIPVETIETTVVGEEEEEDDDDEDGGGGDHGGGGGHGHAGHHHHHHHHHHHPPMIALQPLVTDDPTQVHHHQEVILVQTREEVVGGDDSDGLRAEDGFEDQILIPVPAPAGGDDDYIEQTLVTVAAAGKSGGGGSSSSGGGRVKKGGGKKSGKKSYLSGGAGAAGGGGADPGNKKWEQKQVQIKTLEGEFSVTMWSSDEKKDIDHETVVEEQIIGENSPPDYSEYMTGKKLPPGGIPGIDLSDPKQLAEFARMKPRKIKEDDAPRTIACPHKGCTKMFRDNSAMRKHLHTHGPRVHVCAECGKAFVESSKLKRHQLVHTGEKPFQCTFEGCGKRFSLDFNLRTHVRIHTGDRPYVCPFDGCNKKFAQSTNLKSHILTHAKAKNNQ

[7] = biological target: small GTP-binding protein RhoB (tested for GST-ATG99 interaction) (UniProt P62745 1-196, limits assumed); experiment: GST pull-down
Chain of small GTP-binding protein RhoB (tested for GST-ATG99 interaction) (P62745 whole entry): as the sequence (P62745 whole entry) above

Max = Max (UniProt P61244 1-160, limits assumed); experiment: GST pull-down
Chain of Max (P61244 whole entry): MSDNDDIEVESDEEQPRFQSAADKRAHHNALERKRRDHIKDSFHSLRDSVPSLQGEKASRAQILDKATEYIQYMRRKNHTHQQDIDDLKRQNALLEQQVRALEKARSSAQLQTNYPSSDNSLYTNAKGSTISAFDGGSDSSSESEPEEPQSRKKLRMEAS

cell cycle protein p107 = biological target: T2, cell cycle protein p107; experiment: GST pull-down
[8] = biological target: extracellular protein PAI-1 (UniProt P05121 24-402, limits assumed); experiment: GST pull-down
Chain of extracellular protein PAI-1 (P05121 24-402 limits assumed): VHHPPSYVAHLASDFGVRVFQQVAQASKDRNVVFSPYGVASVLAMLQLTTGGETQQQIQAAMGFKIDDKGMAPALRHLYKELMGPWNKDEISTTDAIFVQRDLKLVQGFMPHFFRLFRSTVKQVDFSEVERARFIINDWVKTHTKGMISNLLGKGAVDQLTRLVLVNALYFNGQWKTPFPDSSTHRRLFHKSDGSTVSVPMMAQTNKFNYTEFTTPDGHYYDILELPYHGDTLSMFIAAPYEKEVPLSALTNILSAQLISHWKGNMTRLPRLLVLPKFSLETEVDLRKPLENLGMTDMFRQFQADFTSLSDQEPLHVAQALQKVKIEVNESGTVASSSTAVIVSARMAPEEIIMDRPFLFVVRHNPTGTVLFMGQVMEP

Row | Binder | binding result [1] | binding result [2] | binding result [3] | binding result [4] | binding result [5] | binding result (USF (vector CMV-USF)) | binding result [6] | binding result [7] | binding result (Max) | binding result (cell cycle protein p107) | binding result [8]
1 | B1 | binds | no binding | no binding |  |  |  |  |  |  |  | 
2 | B2 |  |  |  | no binding | no binding | no binding | no binding | no binding | no binding | no binding | no binding
